Results from article PMC5473807, “Distribution and kinetics of the Kv1.3-blocking peptide HsTX1[R14A] in experimental rats” (Scientific Reports, 2017).
Where two headings read alike, the source gives them in different places.

Test: In vivo biodistribution by organ and tissue extraction
Set-up: species or system male Wistar rats
Settings: for SUV at 5 min / tissue uptake dose at 5 min / SUV at 1 h / tissue uptake dose at 1 h / SUV at 4 h / tissue uptake dose at 4 h / SUV at 24 h / tissue uptake dose at 24 h / SUV at 48 h / tissue uptake dose at 48 h: male, Wistar, total radioactivity, rat, mean ± SD; for SUV at 5 min / tissue uptake dose at 5 min: 5 min p.i.; for SUV at 1 h / tissue uptake dose at 1 h: 60 min p.i.; for SUV at 4 h / tissue uptake dose at 4 h: 240 min p.i.; for SUV at 24 h / tissue uptake dose at 24 h: 1440 min p.i.; for SUV at 48 h / tissue uptake dose at 48 h: 2880 min p.i.
Method: The present study includes data obtained from a total of 50 animals. Four animals (body weight 227 ± 10 g) for each time point were injected intravenously into a tail vein or subcutaneously with approximately 0.3 MBq ([…]) [^64Cu]Cu-NOTA-HsTX1[R14A] conjugate in 0.5 mL electrolyte solution E-153 (Serumwerk Bernburg, Germany). Animals were euthanised at 5, 60, 240, 1440 and 2880 min post-injection. Blood and the major organs were collected, weighed, and counted in a cross-calibrated γ-counter (Isomed 1000, Isomed GmbH, Dresden) and Wallac WIZARD Automatic Gamma Counter (PerkinElmer, Germany). The radioactivity of the tissue samples was decay-corrected and calibrated by comparing the counts in tissue with the counts in aliquots of the injected radiotracer that had been measured in the γ-counter at the same time. The activity in the selected organs was expressed as percent-injected dose per organ (% ID) and the activity concentration in tissues and organs as standardised uptake value (SUV). Values are quoted as mean ± standard error of mean (SEM) for each group of four animals.

[1] = Harderian gland, iv, 0.3 MBq, i.v., n=4, read-out: Harderian gl. SUV
[2] = Harderian gland, iv, 0.3 MBq, i.v., n=4, read-out: Harderian gl. activity amount
[3] = Harderian gland, iv, 0.3 MBq, i.v., n=8, read-out: Harderian gl. SUV
[4] = Harderian gland, iv, 0.3 MBq, i.v., n=8, read-out: Harderian gl. activity amount
[5] = Harderian gland, sc, 0.3 MBq, s.c., n=4, read-out: Harderian gl. SUV
[6] = Harderian gland, sc, 0.3 MBq, s.c., n=4, read-out: Harderian gl. activity amount
[7] = adrenals, iv, 0.3 MBq, i.v., n=4, read-out: Adrenals SUV
[8] = adrenals, iv, 0.3 MBq, i.v., n=4, read-out: Adrenals activity amount
[9] = adrenals, iv, 0.3 MBq, i.v., n=8, read-out: Adrenals SUV
[10] = adrenals, iv, 0.3 MBq, i.v., n=8, read-out: Adrenals activity amount
[11] = adrenals, sc, 0.3 MBq, s.c., n=4, read-out: Adrenals SUV
[12] = adrenals, sc, 0.3 MBq, s.c., n=4, read-out: Adrenals activity amount
[13] = blood, sc, s.c., n=4, read-out: Blood SUV
[14] = brain, iv, 0.3 MBq, i.v., n=4, read-out: Brain SUV
[15] = brain, iv, 0.3 MBq, i.v., n=4, read-out: Brain activity amount
[16] = brain, iv, 0.3 MBq, i.v., n=8, read-out: Brain SUV
[17] = brain, iv, 0.3 MBq, i.v., n=8, read-out: Brain activity amount
[18] = brain, sc, 0.3 MBq, s.c., n=4, read-out: Brain SUV
[19] = brain, sc, 0.3 MBq, s.c., n=4, read-out: Brain activity amount
[20] = carcass, iv, 0.3 MBq, i.v., n=4, read-out: Carcass activity amount
[21] = carcass, iv, 0.3 MBq, i.v., n=8, read-out: Carcass activity amount
[22] = carcass, sc, 0.3 MBq, s.c., n=4, read-out: Carcass activity amount
[23] = femur, iv, 0.3 MBq, i.v., n=4, read-out: Femur SUV
[24] = femur, iv, 0.3 MBq, i.v., n=4, read-out: Femur activity amount
[25] = femur, iv, 0.3 MBq, i.v., n=8, read-out: Femur SUV
[26] = femur, iv, 0.3 MBq, i.v., n=8, read-out: Femur activity amount

SMILES: CSCC[C@@H]1NC(=O)[C@@H]2CSSC[C@H](NC(=O)[C@H](CO)NC(=O)[C@H](C)NC(=O)COCCOCCNC(=O)CN3CCN(CC(=O)O)CCN(CC(=O)O)CC3)C(=O)N[C@@H](CCCNC(=N)N)C(=O)N[C@@H]([C@@H](C)O)C(=O)N3CCC[C@H]3C(=O)N[C@@H](CCCCN)C(=O)N[C@@H](CC(=O)O)C(=O)N[C@H]3CSSC[C@H](NC(=O)[C@H](CCCCN)NC(=O)[C@H](CCCNC(=N)N)NC(=O)[C@H](CC(N)=O)NC1=O)C(=O)N[C@@H](CCCCN)C(=O)N[C@H]1CSSC[C@H](NC(=O)[C@@H]4CCCN4C(=O)[C@H](CC(=O)O)NC(=O)[C@H](C)NC3=O)C(=O)N[C@@H](C)C(=O)N[C@@H](CCCCN)C(=O)N[C@@H](CCC(=O)O)C(=O)N[C@@H]([C@@H](C)O)C(=O)NCC(=O)N[C@@H](CSSC[C@@H](C(N)=O)NC(=O)[C@H](CCCNC(=N)N)NC(=O)[C@H](CC(N)=O)NC1=O)C(=O)N1CCC[C@H]1C(=O)N[C@@H](Cc1ccc(O)cc1)C(=O)NCC(=O)N[C@@H](CCCCN)C(=O)N2 [[^64Cu]Cu-NOTA-HsTX1[R14A], metal not drawn]
- biological half-life of the total activity in the rat body (i.v.): 45.4 h
- SUV at 5 min [1]: 0.82 ± 0.12 SUV
- tissue uptake dose at 5 min [2]: 0.1 ± 0.02 %ID
- SUV at 1 h [3]: 0.3 ± 0.05 SUV
- tissue uptake dose at 1 h [4]: 0.04 %ID
- SUV at 4 h [1]: 0.23 ± 0.01 SUV
- tissue uptake dose at 4 h [2]: 0.03 %ID
- SUV at 24 h [3]: 0.56 ± 0.1 SUV
- tissue uptake dose at 24 h [4]: 0.08 ± 0.01 %ID
- SUV at 48 h [1]: 0.48 ± 0.05 SUV
- tissue uptake dose at 48 h [2]: 0.07 %ID
- SUV at 1 h [5]: 0.32 ± 0.01 SUV
- tissue uptake dose at 1 h [6]: 0.04 %ID
- SUV at 4 h [5]: 0.21 ± 0.01 SUV
- tissue uptake dose at 4 h [6]: 0.03 %ID
- SUV at 24 h [5]: 0.46 ± 0.01 SUV
- tissue uptake dose at 24 h [6]: 0.08 ± 0.01 %ID
- SUV at 48 h [5]: 0.44 ± 0.02 SUV
- tissue uptake dose at 48 h [6]: 0.06 ± 0.01 %ID
- SUV at 5 min [7]: 1.26 ± 0.48 SUV
- tissue uptake dose at 5 min [8]: 0.03 %ID
- SUV at 1 h [9]: 0.65 ± 0.37 SUV
- tissue uptake dose at 1 h [10]: 0.01 %ID
- SUV at 4 h [7]: 0.39 ± 0.05 SUV
- tissue uptake dose at 4 h [8]: 0.01 %ID
- SUV at 24 h [9]: 0.86 ± 0.11 SUV
- tissue uptake dose at 24 h [10]: 0.02 %ID
- SUV at 48 h [7]: 0.71 ± 0.04 SUV
- tissue uptake dose at 48 h [8]: 0.02 %ID
- SUV at 1 h [11]: 0.4 ± 0.08 SUV
- tissue uptake dose at 1 h [12]: 0.01 %ID
- SUV at 4 h [11]: 0.4 ± 0.02 SUV
- tissue uptake dose at 4 h [12]: 0.01 %ID
- SUV at 24 h [11]: 0.73 ± 0.1 SUV
- tissue uptake dose at 24 h [12]: 0.02 %ID
- SUV at 48 h [11]: 0.55 ± 0.33 SUV
- tissue uptake dose at 48 h [12]: 0.02 ± 0.01 %ID
- SUV at 5 min (blood, iv, 0.3 MBq, i.v., n=4, read-out: Blood SUV): 1.09 ± 0.62 SUV
- SUV at 1 h (blood, iv, 0.3 MBq, i.v., n=8, read-out: Blood SUV): 0.7 ± 0.23 SUV
- SUV at 4 h [13]: 0.47 ± 0.21 SUV
- SUV at 24 h [13]: 0.44 ± 0.04 SUV
- SUV at 48 h [13]: 0.3 ± 0.01 SUV
- SUV at 5 min [14]: 0.07 SUV
- tissue uptake dose at 5 min [15]: 0.05 %ID
- SUV at 1 h [16]: 0.05 ± 0.01 SUV
- tissue uptake dose at 1 h [17]: 0.05 ± 0.03 %ID
- SUV at 4 h [14]: 0.03 SUV
- tissue uptake dose at 4 h [15]: 0.05 ± 0.01 %ID
- SUV at 24 h [16]: 0.08 ± 0.01 SUV
- tissue uptake dose at 24 h [17]: 0.08 ± 0.03 %ID
- SUV at 48 h [14]: 0.07 SUV
- tissue uptake dose at 48 h [15]: 0.1 %ID
- SUV at 1 h [18]: 0.04 SUV
- tissue uptake dose at 1 h [19]: 0.06 ± 0.01 %ID
- SUV at 4 h [18]: 0.03 SUV
- tissue uptake dose at 4 h [19]: 0.05 %ID
- SUV at 24 h [18]: 0.06 SUV
- tissue uptake dose at 24 h [19]: 0.1 %ID
- SUV at 48 h [18]: 0.07 SUV
- tissue uptake dose at 48 h [19]: 0.09 %ID
- tissue uptake dose at 5 min [20]: 63.4 ± 6.19 %ID
- tissue uptake dose at 1 h [21]: 28.1 ± 1.55 %ID
- tissue uptake dose at 4 h [20]: 20.1 ± 1.68 %ID
- tissue uptake dose at 24 h [21]: 28.4 ± 3.49 %ID
- tissue uptake dose at 48 h [20]: 21.6 ± 1.04 %ID
- tissue uptake dose at 1 h [22]: 32.9 ± 2.62 %ID
- tissue uptake dose at 4 h [22]: 20.1 ± 1.28 %ID
- tissue uptake dose at 24 h [22]: 28.5 ± 1.49 %ID
- tissue uptake dose at 48 h [22]: 19.7 ± 2.74 %ID
- SUV at 5 min [23]: 3.04 ± 2.13 SUV
- tissue uptake dose at 5 min [24]: 1.32 ± 0.89 %ID
- SUV at 1 h [25]: 1.58 ± 0.58 SUV
- tissue uptake dose at 1 h [26]: 0.8 ± 0.21 %ID
- SUV at 4 h [23]: 0.87 ± 0.04 SUV
- tissue uptake dose at 4 h [24]: 0.55 ± 0.03 %ID
- SUV at 24 h [25]: 0.54 ± 0.06 SUV
- tissue uptake dose at 24 h [26]: 0.3 ± 0.06 %ID
